The text below walks through data of patent US20090136481A1.

The test has as its target recombinant myostatin. The experiment in a line: cell-based or functional assay.

With “350 protein (dominant negative peptide of myostatin C-terminally truncated at amino acid 350; amino acids 267-350 of bovine myostatin) (from UniProt O18836 267-350)”, the macrophage migration in chemotaxis assay (ZAMS medium with 5 µg/ml myostatin, with or without 350 protein) turned out to be 20 fold.
